The results in this text go back to article PMC9427786, “Structure–function characterization of an aldo–keto reductase involved in detoxification of the mycotoxin, deoxynivalenol” (Scientific Reports, 2022).

Usually stoichiometry N stands for a count of units in the complex or per binding partner. As usually defined, the Km is the substrate concentration at which the rate is half of its maximum. One may read the Kd as the equilibrium constant for the complex coming apart. Usually kcat stands for the maximal rate divided by the concentration of active sites.

For data set [1], the target named is DepB from Rhizobium leguminosarum (DepB_(Rleg)) (Rhizobium leguminosarum). Briefly: SEC-MALS; P3000 single-pore GPC/SEC column; 20 mM HEPES, 150 mM NaCl, 0.02% NaN3, pH 7; protein at 0.5 mg/mL. A general note: Size exclusion chromatography separates by hydrodynamic size, large species first.
The subject of data set [2] is O=C1C(=O)c2ccccc2-c2ccccc21. Briefly: purified protein. The following applies: pH 7.5; 25.0 °C. The format is biochemical, Rhizobium leguminosarum.
Data set [3] deals with T1, DepBRleg (Rhizobium leguminosarum, UniProt J0WHR2).
T1 construct: gene Rleg4DRAFT_7458; N-terminal His-tag, pET28a (NdeI/HindIII), expressed in E. coli BL21 LOBSTR; about 39 kDa protomer; octamer
Briefly: NADPH oxidation at […] nm. The format is biochemical.

The target of data set [4] is T1, DepBRleg. Briefly: tryptophan fluorescence quenching. Format: binding. An excerpt:
(§1) tryptophan fluorescence quenching on DepBRleg

Data set [5] deals with T2, DepBRleg (Rhizobium leguminosarum, UniProt J0WHR2, R290E).
T2 construct: gene Rleg4DRAFT_7458; N-terminal His-tag, pET28a (NdeI/HindIII), expressed in E. coli BL21 LOBSTR; about 39 kDa protomer; octamer
Briefly: tryptophan fluorescence quenching. The format is binding.
Description: as §1

Data set [6] deals with T3, DepBRleg (Rhizobium leguminosarum, UniProt J0WHR2, Q294E).
T3 construct: gene Rleg4DRAFT_7458; N-terminal His-tag, pET28a (NdeI/HindIII), expressed in E. coli BL21 LOBSTR; about 39 kDa protomer; octamer
Put plainly: tryptophan fluorescence quenching. Format: binding.
Description: as §1

In data set [7] the target is T4, DepBRleg (Rhizobium leguminosarum, UniProt J0WHR2, R290N).
T4 construct: gene Rleg4DRAFT_7458; N-terminal His-tag, pET28a (NdeI/HindIII), expressed in E. coli BL21 LOBSTR; about 39 kDa protomer; octamer
Put plainly: tryptophan fluorescence quenching. The format is binding.
Description: as §1

The target of data set [8] is T5, DepBRleg (Rhizobium leguminosarum, UniProt J0WHR2, K217M).
T5 construct: gene Rleg4DRAFT_7458; N-terminal His-tag, pET28a (NdeI/HindIII), expressed in E. coli BL21 LOBSTR; about 39 kDa protomer; octamer
Briefly: tryptophan fluorescence quenching. The format is binding.
Description: as §1

Data set [9] concerns the target T6, DepBRleg (Rhizobium leguminosarum, UniProt J0WHR2, K217E).
T6 construct: gene Rleg4DRAFT_7458; N-terminal His-tag, pET28a (NdeI/HindIII), expressed in E. coli BL21 LOBSTR; about 39 kDa protomer; octamer
Briefly: tryptophan fluorescence quenching. Format: binding.
Description: as §1

Substrate in data set [10]: NC(=O)C1=CN([C@@H]2O[C@H](COP(=O)(O)OP(=O)(O)OC[C@H]3O[C@@H](n4cnc5c(N)ncnc54)[C@H](O)[C@@H]3O)[C@@H](O)[C@H]2O)C=CC1
Briefly: purified protein. The following applies: 10 mM DL-glyceraldehyde, 100 mM HEPES pH 7.5, 298 K, 25.0 °C, varied: cofactor.

Substrate in data set [11]: O=CC(O)CO
Briefly: purified protein. The following applies: 1 mM NADPH, 100 mM HEPES pH 7.5, 298 K, about 10% DMSO, 25.0 °C. The format is biochemical, Rhizobium leguminosarum.

Substrate in data set [12]: NC(=O)C1=CN([C@@H]2O[C@H](COP(=O)(O)OP(=O)(O)OC[C@H]3O[C@@H](n4cnc5c(N)ncnc54)[C@H](OP(=O)(O)O)[C@@H]3O)[C@@H](O)[C@H]2O)C=CC1
Briefly: purified protein. Format: biochemical, Rhizobium leguminosarum. The settings on record: 10 mM DL-glyceraldehyde, 100 mM HEPES pH 7.5, 298 K, 25.0 °C, varied: cofactor.

Substrate in data set [13]: CCCCCC=O
Briefly: purified protein. Format: biochemical, Rhizobium leguminosarum. The following applies: 1 mM NADPH, 100 mM HEPES pH 7.5, 298 K, about 10% DMSO, 25.0 °C.

Substrate in data set [14]: CCCCCC(=O)/C=C/C=O
Put plainly: purified protein. The following applies: 1 mM NADPH, 100 mM HEPES pH 7.5, 298 K, about 10% DMSO, 25.0 °C. The format is biochemical, Rhizobium leguminosarum.

Substrate in data set [15]: CCCC=O
Briefly: purified protein. Format: biochemical, Rhizobium leguminosarum. The following applies: 1 mM NADPH, 100 mM HEPES pH 7.5, 298 K, about 10% DMSO, 25.0 °C.

Substrate in data set [16]: O=C1Nc2ccccc2C1=O
Briefly: purified protein. The format is biochemical, Rhizobium leguminosarum. The settings on record: 1 mM NADPH, 100 mM HEPES pH 7.5, 298 K, about 10% DMSO, 25.0 °C.

Like-named read-outs stand apart in the source and are kept apart here.

On to “DepB from Rhizobium leguminosarum (DepB_(Rleg)) (enzyme)”, for which, in [1], the stoichiometry N worked out at 8.

For “DepBRleg (Rhizobium leguminosarum bv. trifolii WSM2297)”, the Km in data set [2] stood at 68.3 ± 14.3 µM.

Take `O=C1C=C2C(=CCOC2O)O1` (stereo not drawn) [Patulin]: the Km in data set [3] (read-out: Km,app; 1 mM NADPH, 100 mM HEPES pH 7.5, 298 K, about 10% DMSO) was found to be 678 ± 85.5 µM.

As for `C=CC=O` [Acrolein], in [3] (1 mM NADPH, 100 mM HEPES pH 7.5, 298 K, about 10% DMSO; read-out: Km,app), the Km was found to be 83.3 ± 6.69 µM.

Turning to `NC(=O)C1=CN([C@@H]2O[C@H](COP(=O)(O)OP(=O)(O)OC[C@H]3O[C@@H](n4cnc5c(N)ncnc54)[C@H](O)[C@@H]3O)[C@@H](O)[C@H]2O)C=CC1` [NADH], the Kd stood at 67.3 ± 2.5 µM in [4], 119 ± 9.8 µM in [5] and 91.2 ± 10 µM in data set [6].

As to `NC(=O)C1=CN([C@@H]2O[C@H](COP(=O)(O)OP(=O)(O)OC[C@H]3O[C@@H](n4cnc5c(N)ncnc54)[C@H](OP(=O)(O)O)[C@@H]3O)[C@@H](O)[C@H]2O)C=CC1` [NADPH], the Kd in data set [4] was determined as 11.4 ± 0.84 µM; in data set [7], 59.5 ± 4.2 µM; in data set [8], 74.1 ± 4.6 µM; in [5], 123 ± 6.2 µM; in data set [9], 68.6 ± 8.7 µM; in data set [6] it was 97.9 ± 13 µM.

B1: DepBRleg (Rhizobium leguminosarum bv. trifolii WSM2297) (protein)
chain: MDYRKLGPSGTVVTAYCLGTMTFGAEADEAASHKLLDDYFAWGGNFIDTADVYSAGKSEEIIGRWLKARPTEARQAIVATKGRFPMGNGPNDIGLSRRHLSQALDDSLRRLGLEQIDLYQMHAWDALTPIEETLRFLDDAVSSGKIGYYGFSNYVGWHIAKASEIAKARGYTRPVTLQPQYNLLMRDIELEIVAACQDAGMGLLPWSPLGGGWLTGKYKRDEMPTGATRLGENPNRGGESYAPRNAQERTWAIIGTVEEIAKARGVSMAQVALAWTAARPAITSVILGARTPEQLADNLGAMKVELSGEEMARLNEVSAPQPLDYPYGKGGINQRHRKIEGGR
In the case of B1, the Km in [10] was found to be 1560 ± 399 µM; in data set [11] it was 3890 ± 516 µM; in data set [12] it was 15.2 ± 1.41 µM; in [13], 1230 ± 231 µM; in data set [14], 1020 ± 136 µM; in data set [15], 617 ± 33.5 µM. For the same molecule, the Km in data set [16] came out at 1780 ± 410 µM. The kcat in data set [10] was determined as 0.0242 ± 0.00344 s⁻¹; in data set [11], 0.782 ± 0.0803 s⁻¹; in data set [12], 0.337 ± 0.00757 s⁻¹; in data set [13], 0.303 ± 0.0269 s⁻¹; in data set [14], 7.90 ± 0.678 s⁻¹; in [15] it was 0.410 ± 0.00922 s⁻¹. In addition, the catalytic constant (kcat) in data set [16] worked out at 6.43 ± 0.920 s⁻¹.
